The numbers were not newly measured in PMC8594252, which cites them from elsewhere.

For orientation: Kd means the constant that tells how readily two partners part at equilibrium.

The target in the data set is HSPE1 (Homo sapiens) (UniProt P61604).

As to HSPE1 (from UniProt P61604), the Kd is 3000 nM.
